Source: the DeepSol protein solubility set

Assay: soluble on expression in E. coli; label from the status in PepcDB or PDB records

Sequence	soluble on expression in E. coli
MSLKLTKKVGYAGRVITERGLEELEKANISYRLGSIYSNILEKTISANYRFGYVVINRCQVYADFNDVLKIIKSVYESGLAVGDRVGIIDREKFVEINTLCSLNFDNILLQNGIFPLHVCAGVVKYEDGKPVEFKEIIDYKSTSIDPLRAFIEKKETDVMGIIENGEGYLPANFRYFGVEFLERFETILEIDELKCIISYGTENVLGLDVGDDKVGVALIGGLTPIAPFVENNYCVEICPMSSIVRLESLHKLKKNPRDIVTKKANIRIKTALSKMFNAMAKVTYDIDEADGDVIVNTAFIDKKYLDEAFDILKEAYKKGLGISDRFGIVEENDRIKIQTICAVTLDGIFLRNSVPLIPKYGGILEITEDKERFIDIIGYDGSSLDPHEVFFNFVDCEKTFLAGFREVHRVAREKLEEVLKKLNWNGIKAIGEPNNELYGIGVNKDMCGVVTMGGINPLVLLKENEIPIELKAMHEVVRFSDLKSYKEIEGHHHHHH	soluble
MIRLAHADDLLILQEIERAAGQAFRALGMDSIADDEPLSIDELNSYATAGRAWVSVDGLDYPVAYLLADIVDGAGHVEQVSVHPDQAHQGLGRELLHAARVWTRGHGMQRQTLSTFRDVPWNAPYYRRLGFDVLDAGSWGPQLAHLMEHEAELGLTRWPRVAMWRPAVPPK	soluble
MGSDKIHHHHHHMAAFTTTDGLRLFYEDEGTGQPLLCLAGLTRCSRDFEFLRPHVTDLRLIRLDYRGRGQSDYDPDYRNYNVLREAHDVIELLDHLGLDRVTVLGTSRGGMIAMALAASHPDRLAGVILNDVGPVIEPAGIARIMDYVGKKPVSKTHDQAALALKQAMEPQFPGVPLSVWRKQAEIQYAASDQGLALRYDDGLHKALLDQAATGAIPDLWLFFEALRDIPTAVLRGANSDILGAGTVAEMHRRHPGLISAEVPDRGHVPFLDEPQSLDLIRRILETA	not soluble
MTYFTSWDEFAKAAERLHSANPEKCRFVTKYNHTKGQLVLKLTDDVVCLQYSTNQLQDVKKLEKLSSTLLRGIVTQ	soluble
MGSDKIHHHHHHMDSLSSILKSVRLQGSVYFNACFASPWGLDLDQNQRAYFHLIIRGACYLQLGDKKEQLQGGDIIILPHGTAHQLFDDPSSVRVNATGVVPGLIDGINPFEGVGHSQDIDILCGYFNFNNSTPSYFLNALPDVIHLTQEHRTHFSFLDNALSFITQETKMKNLGREILIDRVTELLFVQIMRVYININGNEENIFSALSDRTLSEALQLMHTESDKNWTVESLAKAIGMSRSRFSEHFHNYIGETPMRYLHTCRMEVAKQKIEETESTLNIISEEVGYASDSAFKKAFKKFFGNTPSTFRQKNDK	not soluble
MGHHHHHHSHAAPGAQHFLYEVPPWVMCRFYKVMDALEPADWCQFAALIVRDQTELRLCERSGQRTASVLWPWINRNARVADLVHILTHLQLLRARDIITAWHPPAPLP	not soluble
MRKVETTKAPQAIGPYSQGIIVNNMFYSSGQIPLTPEGELVKGDIQAQTHQVFQNLKAVLEAAGASLDTVVKTTVFLKNMDDFAAMNEVYSQYFPNHKPARSCVEVARLPKDVLVEIEVVALVP	soluble
MGSDKIHHHHHHMRENSDVLANSGFRQSVEVQIKDKQSYKRLNMTLVGQQHPDYLILELSRQYCWQDILPMLATEKNVAIKTVSPKGEQVTGVVDILHITQYPQKLLFVSYPRNASVEILRSSPRVGVNCDARLQLQLKDKLGEPLTGKIVDISNKGIAFNYFGTSPVNIEDSRGLEAEVRVKTDDETILLQQLITRSIRSVGPQLWQLGLSYKEKPNNLQDLVSKLFLHSTPVRELLSDNDPGWDASDNTLQGESESVQFSTN	not soluble
MMRISEKGITLIKEFEGCSLKAYPDPGTGGDPWTIGYGWTHSVDGKPVKPGMMIDEATAERLLKTGLVGYENDVSRLVKVKLTQGQFDALVSFAYNLGARTLSTSTLLRKLNAGDYAGAADEFLRWNKAGSKVLNGLTRRREAERALFLS	not soluble
MTNVLYQHGTLGTLMAGLLEGTATINELLEHGNLGIATLTGSDGEVIFLDGKAYHANEHKEFIELKGDEKVPYASITNFKASKTFPLQQLSQDDVFAQIKNEMLSENLFSAVKIYGTFKHMHVRMMPAQQPPYTRLIDSARRQPEEKRQDIRGAIVGFFTPELFHGVGSAGFHIHFADDERAYGGHVLDFEVDDVVVEIQNFETFQQHFPVNNETFVKAKIDYKDVAEEIREAE	soluble
MGHHHHHHSHMDALEGESFALSFSSASDAEFDAVVGYLEDIIMDDEFQLLQRNFMDKYYLEFEDTEENKLIYTPIFNEYISLVEKYIEEQLLQRIPEFNMAAFTTTLQHHKDEVAGDIFDMLLTFTDFLAFKEMFLDYRAEKEGRGLDLSSGLVVTSLCKSSSLPASQNNLRH	soluble
RDTSVVVEHTSANPTGPVHVGRARNPIIGDAVARVLDYAGYDVDRHYYVNDAGRQIAVFTWAYETFDEDDLPEPERESPEYEMVRYYRKGNTILEDGDPDEVEAAEAEVQSILQGLEDGDEETYERVAEVVDTVLGGMQNTLGRLPAEFDEFVKETKFMRNGDTDDLVDRLKGLDCAVYEEDAWQLDLPDFEKNLVFLRSDGTSLYTTRDLAHHEWKFDTYDRAVTVLGEDHKLQADQLAAALELLDNDTDQLRQVFYSWVNLPEGGMSTREGTGIDLDDLLDEAIDRAREEVESRLDDRTRGDLDEDDIDRIARQVGIGAVRYDIVSKQPTKGITFEWDRALDFEAQSAPYVQYV	not soluble
MSFIKTFSGKHFYYDKINKDDIVINDIAVSLSNICRFAGHLSHFYSVAQHAVLCSQLVPQEFAFEALMHDATEAYCQDIPAPLKRLLPDYKRMEEKIDAVIREKYGLPPVMSTPVKYADLIMLATERRDLGLDDGSFWPVLEGIPATEMFNVIPLAPGHAYGMFMERFNDLSELRKCA	soluble
MSLTNYKVVVLDMDDTLLNSDNVISEETANYLTAIQDEGYYVVLASGRPTEGMIPTARDLKLPEHHSYIISYNGSKTINMTNEEVEVSKSIGKQDFDEIVDYCRDRGFFVLTYHDGQIIYDSEHEYMNIEAELTGLPMKRVDDIKAYIQGDVPKVMGVDYVANITEARIDLNGVFNDNVDATTSKPFFLEFMAKDVSKGNAIKALCHKLGYSVDQVIAFGDSMNDKSMFEVAGLAIAMGNASDELKQYADEVTLDHNENGIPHALKKLLEGHHHHHH	soluble
MSLSHQQKVYIPKEARTNQYITAEIKVTDELLNQYPDYHSCYQTLSRIIFNLAEQHDLRNVHVITNDKLPVVRYHTEAYCFQTAEQILFFYNPAYHEAQNLFTADNYRARKLRIVFLATGDEIRSNSANFHTRVQEFLNELMPKLPIKDLKVKIRDHQHLSYDLFAKSKGNKETYGYKLRAIAPRYKARKCELPENVSSLTYVTVSLPLSRKLKQGLLPESATDFSPLYQHLEDNFLKAAANKQLTRLAMIANGLTPLVRNSKFEKLDSKAEVQMIGFDPNATEQQVIRRWDADNLVEAAHFTIVAGAKDCDDAGYGRFMNNVEAALKSFAAEIGLDPEREDLVTRFHQHISYQL	soluble
MGSDKIHHHHHHMSEKQTTILIINMASDFGGGEIQTEELMLNLTNYNICFFGKSSGKFIPRLKEKAPHIKIVNLWEMLKLVFCCSSLIIHAQDGRGAHIAGFLKKISGRPVVITRHVSFPFKRKFSLSSYKNADMLVGVSQQVTENLKLLNSNCRTIYGCIKPLLENAEFEQRYFVKKHILAIAHIGNLQAVKNFQLTLSLAKNFSQIQFFIVGSGELEQELKQQAINLPNITFIPFTPYIGSVFKKVDLQIVPSHSEGLGAVILEGYQYRVSVIAHQTGGISEIVQNEKTGFLVENNDPMIYHKILTTLLDNPQKLCELKQNVERYIFEHDFSARRMALEYEQVYSAILANRTQK	not soluble
MGSSHHHHHHSSGLVPRGSGDYDYLIKLLALGDSGVGKTTFLYRYTDNKFNPKFITTVGIDFREKRVVYNAQGPNGSSGKAFKVHLQLWDTAGQERFRSLTTAFFRDAMGFLLMFDLTSQQSFLNVRNWMSQLQANAYCENPDIVLIGNKADLPDQREVNERQARELADKYGIPYFETSAATGQNVEKAVETLLDLIMKRMEQCVEKTQIPDTVNGG	soluble
MGSDKIHHHHHHMDKAKLIDLIKTNPNALVYIPNPSDELKLLAVQKNGLALKHIEHPTPEMQELALANNSRAIQFIDNPTEEMMNKAIQDSWVNLEYLQHPSETIIKLAITQAGWAIKYVKHPSEELQLLAVRRHYDSIKFIKDPCPKAQEEAVRINYDALRYIDSPTPQAELLAIRNHESAIAFVKDLSKEKILQFLGVNFLVIKYVRNDITKAELEQVLKETLGQEDVDEKYVRDFLNSSTIHKNSGQMSLDKIMFIYHYGSRKAKKVAVDEKLKI	not soluble
